Measurements reported in article PMC6309729 (Biochemistry, 2011).
Where a chain is given by its changes, count along the chain named. Names may count otherwise. Like-named read-outs stand apart in the source and are kept apart here.

T1: cpSRP54 (chloroplast SRP54), wildtype (Arabidopsis thaliana, UniProt P37107 76-564)
T1 sequence (looked up): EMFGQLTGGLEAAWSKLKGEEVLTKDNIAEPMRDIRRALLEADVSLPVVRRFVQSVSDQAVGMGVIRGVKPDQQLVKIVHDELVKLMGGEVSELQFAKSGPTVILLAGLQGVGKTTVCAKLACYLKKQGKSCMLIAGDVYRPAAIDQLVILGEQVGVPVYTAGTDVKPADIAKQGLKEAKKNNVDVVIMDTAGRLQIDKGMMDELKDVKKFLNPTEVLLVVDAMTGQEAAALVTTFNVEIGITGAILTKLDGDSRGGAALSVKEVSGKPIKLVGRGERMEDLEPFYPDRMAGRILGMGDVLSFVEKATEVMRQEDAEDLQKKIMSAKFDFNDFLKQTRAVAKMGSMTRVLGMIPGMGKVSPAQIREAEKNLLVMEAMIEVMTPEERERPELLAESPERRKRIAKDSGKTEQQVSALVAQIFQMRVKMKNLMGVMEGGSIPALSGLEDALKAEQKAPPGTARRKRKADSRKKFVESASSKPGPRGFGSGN

B1: cpSRP54(A143L) (natural protein)
chain: MFGQLTGGLEAAWSKLKGEEVLTKDNIAEPMRDIRRALLEADVSLPVVRRFVQSVSDQAVGMGVIRGVKPDQQLVKIVHDELVKLMGGEVSELQFAKSGPTVILLAGLQGVGKTTVCAKLACYLKKQGKSCMLIAGDVYRPALIDQLVILGEQVGVPVYTAGTDVKPADIAKQGLKEAKKNNVDVVIMDTAGRLQIDKGMMDELKDVKKFLNPTEVLLVVDAMTGQEAAALVTTFNVEIGITGAILTKLDGDSRGGAALSVKEVSGKPIKLVGRGERMEDLEPFYPDRMAGRILGMGDVLSFVEKATEVMRQEDAEDLQKKIMSAKFDFNDFLKQTRAVAKMGSMTRVLGMIPGMGKVSPAQIREAEKNLLVMEAMIEVMTPEERERPELLAESPERRKRIAKDSGKTEQQVSALVAQIFQMRVKMKNLMGVMEGGSIPALSGLEDALKAEQKAPPGTARRKRKADSRKKFVESASSKPGPRGFGSGN
modifications: GTP/GMPPNP-Mg2+ state. Paper numbering + 76 = precursor (Met77 = 1, taken as the NdeI start)
B2: cpSRP54(A143W) (natural protein)
chain: B1 chain with L143W
modifications: GTP/GMPPNP-Mg2+ state. Paper numbering + 76 = precursor
B3: cpFtsY (chloroplast SRP receptor), wildtype (natural protein, UniProt O80842 41-366, looked up)
chain: CSAGPSGFFTRLGRLIKEKAKSDVEKVFSGFSKTRENLAVIDELLLFWNLAETDRVLDELEEALLVSDFGPKITVRIVERLREDIMSGKLKSGSEIKDALKESVLEMLAKKNSKTELQLGFRKPAVIMIVGVNGGGKTTSLGKLAHRLKNEGTKVLMAAGDTFRAAASDQLEIWAERTGCEIVVAEGDKAKAATVLSKAVKRGKEEGYDVVLCDTSGRLHTNYSLMEELIACKKAVGKIVSGAPNEILLVLDGNTGLNMLPQAREFNEVVGITGLILTKLDGSARGGCVVSVVEELGIPVKFIGVGEAVEDLQPFDPEAFVNAIFS
B4: cpFtsY(A169L) (natural protein)
chain: B3 chain with A167L
modifications: GTP/GMPPNP-Mg2+ state. Paper numbering + 38 = precursor (motif D163-x-F165-R166-A167-A168-A169), anchored on the named residues
B5: cpFtsY(A169W) (natural protein)
chain: B3 chain with A167W
modifications: GTP/GMPPNP-Mg2+ state. Paper numbering + 38 = precursor

Legend:
[1] = molecular target: B3; test: GTPase inhibition assay
[2] = molecular target: B3; test: cell-based or functional assay
[3] = molecular target: B3; test: GTPase inhibition assay; remark: listed apart in the source
[4] = molecular target: T1, cpSRP54 (chloroplast SRP54), wildtype; test: cell-based or functional assay
[5] = molecular target: T1, cpSRP54 (chloroplast SRP54), wildtype; test: GTPase inhibition assay
[6] = molecular target: T1, cpSRP54 (chloroplast SRP54), wildtype; test: GTPase inhibition assay; remark: listed apart in the source

Ki [1]	kcat/Km of the reciprocally stimulated GTPase reaction [2]	Ki [3]	kcat/Km of the reciprocally stimulated GTPase reaction [4]	Ki [5]	Ki [6]	Binder
> 40 µM	200 M⁻¹ s⁻¹					B1
> 40 µM	617 M⁻¹ s⁻¹	> 50 µM				B2
			300000 M⁻¹ s⁻¹			B3
			517 M⁻¹ s⁻¹	> 40 µM		B4
			467 M⁻¹ s⁻¹	> 40 µM	> 50 µM	B5
